Laboratory results: PMC2761280
Like-named read-outs stand apart in the source and are kept apart here.

T1: POLGβ (his)10 (UniProt Q9UHN1 26-485)
T1 sequence: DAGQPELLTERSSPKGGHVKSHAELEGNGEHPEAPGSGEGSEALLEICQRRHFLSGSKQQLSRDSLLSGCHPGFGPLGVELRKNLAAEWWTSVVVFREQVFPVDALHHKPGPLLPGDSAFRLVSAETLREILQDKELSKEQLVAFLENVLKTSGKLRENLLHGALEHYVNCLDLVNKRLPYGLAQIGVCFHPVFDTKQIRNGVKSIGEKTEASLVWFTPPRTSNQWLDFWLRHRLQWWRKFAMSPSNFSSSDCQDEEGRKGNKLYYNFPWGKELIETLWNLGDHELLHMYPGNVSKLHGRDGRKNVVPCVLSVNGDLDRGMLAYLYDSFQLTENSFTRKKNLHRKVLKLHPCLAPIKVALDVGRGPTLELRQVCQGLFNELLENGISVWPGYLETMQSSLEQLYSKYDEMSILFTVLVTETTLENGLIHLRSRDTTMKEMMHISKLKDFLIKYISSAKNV


Legend:
Test in all cases: EMSA
POLGα [1] = biological target: T2, POLGα (UniProt P54098 26-1239)
T2 sequence (P54098 26-1239): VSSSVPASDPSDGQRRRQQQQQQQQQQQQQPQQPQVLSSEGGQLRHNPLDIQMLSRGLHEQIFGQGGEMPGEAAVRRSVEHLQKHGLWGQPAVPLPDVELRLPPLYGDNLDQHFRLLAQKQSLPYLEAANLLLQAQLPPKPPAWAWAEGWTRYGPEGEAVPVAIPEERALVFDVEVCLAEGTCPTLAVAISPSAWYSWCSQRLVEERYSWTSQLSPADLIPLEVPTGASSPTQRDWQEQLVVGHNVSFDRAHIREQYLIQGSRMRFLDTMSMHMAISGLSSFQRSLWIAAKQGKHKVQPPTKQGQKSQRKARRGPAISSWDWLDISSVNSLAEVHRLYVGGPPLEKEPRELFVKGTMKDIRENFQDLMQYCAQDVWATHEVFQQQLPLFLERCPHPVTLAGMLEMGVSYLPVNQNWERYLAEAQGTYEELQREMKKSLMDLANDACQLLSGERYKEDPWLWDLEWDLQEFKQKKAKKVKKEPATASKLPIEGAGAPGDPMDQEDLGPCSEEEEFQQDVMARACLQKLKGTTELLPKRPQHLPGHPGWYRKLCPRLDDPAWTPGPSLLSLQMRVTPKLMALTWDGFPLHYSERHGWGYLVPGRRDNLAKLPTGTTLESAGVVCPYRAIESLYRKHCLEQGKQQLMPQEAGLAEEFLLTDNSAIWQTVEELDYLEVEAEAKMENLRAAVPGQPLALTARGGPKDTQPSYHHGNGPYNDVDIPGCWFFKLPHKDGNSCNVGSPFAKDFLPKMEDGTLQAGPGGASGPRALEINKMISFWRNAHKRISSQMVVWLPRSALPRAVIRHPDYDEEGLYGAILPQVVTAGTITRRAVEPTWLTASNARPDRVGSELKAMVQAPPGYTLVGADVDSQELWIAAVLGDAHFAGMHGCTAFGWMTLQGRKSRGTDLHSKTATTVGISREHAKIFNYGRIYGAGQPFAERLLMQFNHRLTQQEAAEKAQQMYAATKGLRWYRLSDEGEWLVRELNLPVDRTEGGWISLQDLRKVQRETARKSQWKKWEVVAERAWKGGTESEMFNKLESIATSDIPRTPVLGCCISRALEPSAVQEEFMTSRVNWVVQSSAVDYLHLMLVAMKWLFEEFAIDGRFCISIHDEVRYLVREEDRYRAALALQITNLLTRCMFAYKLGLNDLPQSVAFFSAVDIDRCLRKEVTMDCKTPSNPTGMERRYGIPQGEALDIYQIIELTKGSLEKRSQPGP

POLGβ (his)10 [2] = biological target: T1, POLGβ (his)10
POLGα [3] = biological target: T2, POLGα; remark: listed apart in the source
POLGβ (his)10 [4] = biological target: T1, POLGβ (his)10; remark: listed apart in the source

| Binder | Kd (POLGα [1]) | binding result (POLGβ (his)10 [2]) | binding result (POLGα [3]) | binding result (POLGβ (his)10 [4]) |
| --- | --- | --- | --- | --- |
| CCGGTCGTACGGAAAACCTGTATTTTCAGGGCT (ssDNA) [33-mer ss oligonucleotide] | 92 nM | no binding | – | – |
| oligonucleotide C (free ss oligo) (ssDNA) DNA: ACCGCTATGTATTTCGTACATTACTGCCAGCCACCATGAATATTGTACGGTACCATAAATACTTGACCACCTGTAGTACATAAAAACCCAATCCACATCAAAACCCCCTCCCCATGCTTA | – | – | binds | no binding |
